Assay [1] addresses T1, mouse CD98 (mCD98) ECD (mouse, UniProt P10852 100-526).
T1 construct: extracellular domain; By the methods the CD98 ECDs were His6-Avi-tagged; also called murine CD98
T1 sequence (looked up): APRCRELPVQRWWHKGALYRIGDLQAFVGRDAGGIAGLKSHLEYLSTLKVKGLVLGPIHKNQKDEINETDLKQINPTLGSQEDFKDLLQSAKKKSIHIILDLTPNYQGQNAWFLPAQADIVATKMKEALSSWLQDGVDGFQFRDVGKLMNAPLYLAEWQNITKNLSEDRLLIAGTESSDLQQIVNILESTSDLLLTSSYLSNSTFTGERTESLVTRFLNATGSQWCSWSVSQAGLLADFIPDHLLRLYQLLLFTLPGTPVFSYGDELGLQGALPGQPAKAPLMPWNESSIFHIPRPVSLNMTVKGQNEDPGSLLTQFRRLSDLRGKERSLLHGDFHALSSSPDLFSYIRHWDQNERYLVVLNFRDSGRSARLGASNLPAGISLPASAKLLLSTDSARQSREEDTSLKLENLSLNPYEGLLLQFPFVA
The assay can be described thus: SPR (Biacore T200), antibody captured, mouse CD98 ECD as analyte, 1:1 Langmuir model.
Protocol: (§1) Kinetic analysis of the bindings of anti-CD98 antibodies to the ECD of CD98, and the ECD of FcγRs were performed on a Biacore T200 instrument (Biacore, GE Healthcare). Anti-hFc Ab or protein A/G (Thermo Fisher Scientific) was covalently attached to the surface of a CM5 sensor chip using an amine coupling kit (GE Healthcare). Antibodies at optimal concentrations were captured on the chip and the analytes (CD98 or FcγRs) were then injected at 2-fold serial diluted concentrations. Binding kinetics were evaluated using a 1:1 Langmuir binding model. The ka, kd, and KD values were calculated using Biacore T200 evaluation software.

Assay [2] concerns the target T2, human CD98 (hCD98) on cells (human, UniProt P08195 2-529).
T2 construct: also called CHO-hCD98; hCD98-expressing CHO cells
T2 sequence: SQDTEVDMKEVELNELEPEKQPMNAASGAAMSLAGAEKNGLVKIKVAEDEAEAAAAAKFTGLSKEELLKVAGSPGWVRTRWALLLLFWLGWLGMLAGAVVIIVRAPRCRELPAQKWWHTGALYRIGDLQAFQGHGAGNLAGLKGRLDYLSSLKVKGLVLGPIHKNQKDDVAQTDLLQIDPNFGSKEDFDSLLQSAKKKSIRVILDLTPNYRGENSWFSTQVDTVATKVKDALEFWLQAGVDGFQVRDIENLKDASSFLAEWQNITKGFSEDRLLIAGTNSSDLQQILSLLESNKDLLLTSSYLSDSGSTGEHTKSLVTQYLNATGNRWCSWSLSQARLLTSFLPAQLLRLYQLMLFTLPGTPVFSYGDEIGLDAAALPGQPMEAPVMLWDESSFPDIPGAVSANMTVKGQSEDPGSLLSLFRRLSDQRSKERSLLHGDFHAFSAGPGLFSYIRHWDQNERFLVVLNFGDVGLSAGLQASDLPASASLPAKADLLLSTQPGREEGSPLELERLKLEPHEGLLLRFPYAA
The assay can be described thus: immunofluorescence on kidney sections of CD98 humanized mice (hCD98 ECD knock-in), FITC anti-human IgG secondary.

Assay [3] concerns the target T3, hCD98 ECD-His6-Avi (human, UniProt P08195 105-529, biotinylated by BirA ligase on the Avi tag (form used in ELISA)).
T3 construct: also called hCD98 ECD-His6-Avi-Biotin; not shown: His6-Avi tag
T3 sequence: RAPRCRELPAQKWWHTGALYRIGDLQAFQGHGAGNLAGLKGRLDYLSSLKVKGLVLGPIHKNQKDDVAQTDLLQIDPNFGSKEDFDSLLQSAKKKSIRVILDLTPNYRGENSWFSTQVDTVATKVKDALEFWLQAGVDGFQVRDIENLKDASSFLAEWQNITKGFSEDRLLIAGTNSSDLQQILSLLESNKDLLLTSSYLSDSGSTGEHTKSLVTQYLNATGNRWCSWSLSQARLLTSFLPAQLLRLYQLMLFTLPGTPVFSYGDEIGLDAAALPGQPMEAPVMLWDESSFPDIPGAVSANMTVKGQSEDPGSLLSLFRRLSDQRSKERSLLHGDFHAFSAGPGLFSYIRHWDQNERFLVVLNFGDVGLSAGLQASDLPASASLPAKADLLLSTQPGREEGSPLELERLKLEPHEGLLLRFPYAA
The assay can be described thus: ELISA at pH 7.4 and pH 6.5 on hCD98 ECD-His6-Avi-Biotin. (In general: ELISA stands for enzyme-linked immunosorbent assay.)

In assay [4] the target is T3, hCD98 ECD-His6-Avi. The assay can be described thus: ELISA at pH 6.5 on hCD98 ECD-His6-Avi-Biotin.
In assay [5] the target is T3, hCD98 ECD-His6-Avi. The assay can be described thus: ELISA at pH 7.4 on hCD98 ECD-His6-Avi-Biotin.
In assay [6] the target is T3, hCD98 ECD-His6-Avi. The assay can be described thus: ELISA at pH 7.4 and pH 6.5 on hCD98 ECD.
Assay [7] concerns the target T3, hCD98 ECD-His6-Avi. The assay can be described thus: ELISA, EC50 ratio pH 7.4/6.5 against that of S1-F4 Y97E.
Protocol: (§2) For the ELISA-based analysis of antibody binding with antigen, biotinylated protein antigens were captured with streptavidin (Sigma-Aldrich) coated 96-well plates (Nunc, MaxiSorp™). Then, serially diluted antibodies were added, and detected by adding an HRP-labeled goat polyclonal anti-Human IgG Fc (Thermo Fisher Scientific).
The target of assay [8] is T3, hCD98 ECD-His6-Avi. The assay can be described thus: ELISA at pH 6.5, ratio of EC50 values against S1-F4 Y97E.
The target of assay [9] is T3, hCD98 ECD-His6-Avi. The assay can be described thus: ELISA at pH 6.5, biotinylated hCD98 ECD captured on streptavidin.
Protocol: as §2
The target of assay [10] is T3, hCD98 ECD-His6-Avi. The assay can be described thus: ELISA at pH 7.4, biotinylated hCD98 ECD captured on streptavidin, HRP anti-human IgG Fc.
Protocol: as §2
Assay [11] addresses T3, hCD98 ECD-His6-Avi. The assay can be described thus: ELISA at pH 6.5, biotinylated hCD98 ECD captured on streptavidin; pH 6.5.
Protocol: as §2
For assay [12], the target named is T3, hCD98 ECD-His6-Avi. The assay can be described thus: ELISA at pH 7.4, biotinylated hCD98 ECD captured on streptavidin; pH 7.4.
Protocol: as §2
Assay [13] addresses T3, hCD98 ECD-His6-Avi. The assay can be described thus: SPR (Biacore T200), antibody captured, hCD98 ECD as analyte.
Protocol: as §1
In assay [14] the target is T3, hCD98 ECD-His6-Avi. The assay can be described thus: SPR (Biacore T200), antibody captured, hCD98 ECD as analyte, 1:1 Langmuir model.
Protocol: as §1

The record followed here is US20250084177A1 (HUAHUI HEALTH, published 2025).

B1: BC8 (antibody, V domains shown)
VH: EVQLVESGGGVVQPGRSLRLSCAASGFTVSNNYMSWVRQAPGKGLEWVSVIYSGGKTYYADSAKGRFTISRDNSKNTVFLQMNSLRVEDTAVYYCARVSGLGWFDPWGQGTLVTVSS
VL: not shown
notes: human IgG1 format by the methods (detected with anti-human IgG); also called anti-mouse CD98 antibody BC8; mCD98-specific Ab
Regarding B1, in assay [1], the Kd was 86.1 nM, the dissociation rate constant (koff) is 0.00344 s⁻¹ and the on-rate constant (kon) is 40000 M⁻¹ s⁻¹. Besides, the binding result in assay [2] is “no binding (tested: 15 µg/ml)”.

B2: Ab8332 (antibody, V domains shown)
VH: QVQLVQSGAEVKKPGASVKVSCKASGYTFTSYQMHWVRQAPGQGLEWMGIINPSGGSTSYAQKFQGRVTMTRDTSTSTVYMELSSLRSEDTAVYYCARGYEDSNTHQHPIFFDIWGQGTMVTVSS
VL: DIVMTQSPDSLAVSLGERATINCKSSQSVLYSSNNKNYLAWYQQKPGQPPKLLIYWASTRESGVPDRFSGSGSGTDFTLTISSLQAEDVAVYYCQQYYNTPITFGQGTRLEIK
notes: human IgG1 format by the methods
Turning to B2, the “EC50 ratio (pH 7.4/6.5)” value in assay [3] was 50.7. Also, the “EC50 (read off the curve)” value in [4] is roughly 0.1 nM; in assay [5], roughly 5 nM.

B3: H15L1 (antibody, human IgG1, V domains shown)
VH: QVQLVQSGAEVKKPGASVKVSCKASGYTFTSYQMHWVRQAPGQGLEWMGIINDKHGSTSYAQKFQGRVTMTRDTSTSTVYMELSSLRSEDTAVYYCARGYEDSNTHQHPIFFDIWGQGTMVTVSS
VL: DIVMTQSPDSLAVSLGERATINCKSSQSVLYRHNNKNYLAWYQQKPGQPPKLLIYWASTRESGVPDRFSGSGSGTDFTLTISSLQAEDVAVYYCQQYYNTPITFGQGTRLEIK
notes: as for B2
As for B3, the “EC50 ratio (pH 7.4/6.5)” value in assay [3] turned out to be 11.8.

B4: H15L54 (antibody, human IgG1, V domains shown)
VH: QVQLVQSGAEVKKPGASVKVSCKASGYTFTSYQMHWVRQAPGQGLEWMGIINDKHGSTSYAQKFQGRVTMTRDTSTSTVYMELSSLRSEDTAVYYCARGYEDSNTHQHPIFFDIWGQGTMVTVSS
VL: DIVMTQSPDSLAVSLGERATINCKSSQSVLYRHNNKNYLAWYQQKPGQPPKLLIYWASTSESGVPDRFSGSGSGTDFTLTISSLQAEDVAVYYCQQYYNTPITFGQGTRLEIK
notes: human IgG1 format by the methods; also called pH-dependent anti-hCD98 antibody H15L54
In the case of B4, the “EC50 ratio (pH 7.4/6.5)” value in [6] is 38. In assay [7], the “fold higher binding pH-dependence than S1-F4 Y97E” value was roughly 14 fold. In addition, in assay [8], the “fold higher binding activity at pH 6.5 than S1-F4 Y97E” value was roughly 7 fold. This molecule also returned an EC50 in assay [9] of 0.247 nM. In addition, in assay [10], the “EC50 (read off the curve)” value is roughly 5 nM.

B5: S1-F4 Y97E (antibody, V domains shown)
VH: QVQLVQSGAEVKKPGASVKVSCKASGYTFTSYYMHWVRQAPGQGLEWMGIINPSGGSTSYAQKFQGRVTMTRDTSTSTVYMELSSLRSEDTAVYYCARGYEDILTGSRPIFFDIWGQGTMVTVSS
VL: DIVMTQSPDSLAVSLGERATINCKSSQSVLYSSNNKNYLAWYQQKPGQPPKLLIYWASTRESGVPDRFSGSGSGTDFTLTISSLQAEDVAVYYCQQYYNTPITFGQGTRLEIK
notes: S1-F4 with Y97E in HCDR3; also called S1-F4 VH Y97E
B5: the “EC50 ratio (pH 7.4/6.5)” value in assay [6] is 2.7. The results for the 50% effective concentration (EC50) in assay [11] and in assay [12] were 1.69 nM and 4.53 nM, respectively.

B6: H15L35 (antibody, human IgG1, V domains shown)
VH: QVQLVQSGAEVKKPGASVKVSCKASGYTFTSYQMHWVRQAPGQGLEWMGIINDKHGSTSYAQKFQGRVTMTRDTSTSTVYMELSSLRSEDTAVYYCARGYEDSNTHQHPIFFDIWGQGTMVTVSS
VL: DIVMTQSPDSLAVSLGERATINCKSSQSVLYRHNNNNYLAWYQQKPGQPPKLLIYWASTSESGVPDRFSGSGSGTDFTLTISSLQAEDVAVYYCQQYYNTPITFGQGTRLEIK
notes: as for B2
Regarding B6, the “EC50 ratio (pH 7.4/6.5)” value in [3] turned out to be 16.

B7: HN2-G9 (antibody, V domains shown)
VH: QVQLVQSGAEVKKPGSSVKVSCKASGYTFTSYYMHWVRQAPGQGLEWMGIINPSGGSTSYAQKFQGRVTMTRDTSTSTVYMELSSLRSEDTAVYFCARGYCSGGRCYSDFQHWGQGTLVTVSS
VL: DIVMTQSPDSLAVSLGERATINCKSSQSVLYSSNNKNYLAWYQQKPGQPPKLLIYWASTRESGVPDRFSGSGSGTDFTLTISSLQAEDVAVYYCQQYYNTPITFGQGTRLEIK
As to B7, the dissociation constant Kd in assay [13] came out at 1290 nM. In assay [14], this molecule came in with a dissociation rate constant (koff) of 0.102 s⁻¹ and a kon of 787000 M⁻¹ s⁻¹.

B8: IGN523 (antibody, V domains shown)
VH: QVQLVQSGAEVKKPGSSVKVSCKASGNAFTNYLIEWVRQAPGQGLEWMGVINPGSGITNYNEKFKGKATITADKSTSTAYMELSSLRSEDTAVYYCSGSANWFAYWGQGTLVTVSS
VL: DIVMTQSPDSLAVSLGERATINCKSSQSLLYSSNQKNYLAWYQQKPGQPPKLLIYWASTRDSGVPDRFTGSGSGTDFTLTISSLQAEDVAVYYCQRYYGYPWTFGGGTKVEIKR
In [14], B8 displayed a Kd of 0.722 nM, a koff of 0.000145 s⁻¹ and a kon of 201000 M⁻¹ s⁻¹.

What is called Kd is the equilibrium constant for the complex coming apart. The low end stands for higher affinity, the high end for lower affinity. The term koff denotes a measure of how fast the partners let go of each other. The kon is the second-order rate constant of association. The EC50 (read off the curve) is the concentration at which the effect is half-maximal. Broadly, the EC50 is the concentration giving half of the maximal effect.
